In patent publication US12528864 (GlaxoSmithKline, dated 2026) one finds EC50 and IC50 data, which are given here for seven molecules.

The target of test [1] is T1, cynomolgus monkey CD96v2 expressed on cells (CHO cells; transiently transfected HEK cells) (cynomolgus monkey, UniProt A0A2K5TWV6 22-569).
T1 construct: the cell is named under assay; also called CHO-cyCD96; Cyno CD96v2
T1 sequence: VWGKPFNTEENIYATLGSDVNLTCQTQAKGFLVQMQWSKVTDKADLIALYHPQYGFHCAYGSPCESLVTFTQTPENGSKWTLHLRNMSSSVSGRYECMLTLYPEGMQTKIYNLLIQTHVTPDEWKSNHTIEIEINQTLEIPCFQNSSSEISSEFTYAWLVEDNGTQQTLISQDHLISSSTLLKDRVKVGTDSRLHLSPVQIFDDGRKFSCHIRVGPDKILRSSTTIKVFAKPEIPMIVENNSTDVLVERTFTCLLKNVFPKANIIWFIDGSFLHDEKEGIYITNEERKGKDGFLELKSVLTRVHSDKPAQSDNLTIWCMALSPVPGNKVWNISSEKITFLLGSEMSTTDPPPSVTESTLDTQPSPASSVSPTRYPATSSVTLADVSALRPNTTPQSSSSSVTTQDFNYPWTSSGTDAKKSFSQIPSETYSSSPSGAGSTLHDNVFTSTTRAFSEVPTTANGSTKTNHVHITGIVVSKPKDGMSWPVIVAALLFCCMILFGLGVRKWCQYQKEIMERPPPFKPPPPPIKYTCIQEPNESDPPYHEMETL
The test can be described thus: flow cytometry on CHO cells expressing cynomolgus CD96v2. (In flow cytometry, cells or beads pass a laser one at a time.)

The target of test [2] is T2, human CD96v2 expressed on cells (CHO cells; transiently transfected HEK cells) (human, UniProt P40200-2 22-569).
T2 construct: whole, on cells; the cell is named under assay; also called CHO-huCD96; hCD96v2
T2 sequence (looked up): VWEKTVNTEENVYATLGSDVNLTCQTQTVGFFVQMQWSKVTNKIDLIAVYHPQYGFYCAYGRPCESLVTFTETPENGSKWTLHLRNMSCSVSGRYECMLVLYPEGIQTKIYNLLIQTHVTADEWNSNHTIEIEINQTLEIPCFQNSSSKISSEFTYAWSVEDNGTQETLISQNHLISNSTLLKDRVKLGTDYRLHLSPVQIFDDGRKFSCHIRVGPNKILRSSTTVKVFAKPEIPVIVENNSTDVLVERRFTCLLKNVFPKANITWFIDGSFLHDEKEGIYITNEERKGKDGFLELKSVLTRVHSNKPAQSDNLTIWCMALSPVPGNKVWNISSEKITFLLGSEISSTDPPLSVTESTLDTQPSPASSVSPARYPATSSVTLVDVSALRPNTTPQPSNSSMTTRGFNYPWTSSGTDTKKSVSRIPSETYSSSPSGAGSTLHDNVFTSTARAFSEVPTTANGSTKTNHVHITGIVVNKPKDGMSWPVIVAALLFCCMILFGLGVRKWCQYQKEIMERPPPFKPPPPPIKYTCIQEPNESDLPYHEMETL
In words: flow cytometry, inhibition of human CD155-Fc-AF647 binding to CHO cells expressing human CD96v2; competitor CD155-Fc.

Test [3] concerns the target T2, human CD96v2 expressed on cells (CHO …). The test can be described thus: flow cytometry on CHO cells expressing human CD96v2.

B1: 42Y073-86F08-4 (antibody, V domains shown)
VH: QVQLVQSGAEVKKPGSSVKVSCKASGGTFSEYAIHWVRQAPGQGLEWMGNIIPIFGTAGYAQKFQGRVTITADESTSTAYMELSSLRSEDTAVYYCARGAGYYGDKDPMDVWGQGTTVTVSS
VL: DIQLTQSPSSLSASVGDRVTITCRASQSISSYLNWYQQKPGKAPKLLIYAASSLQSGVPSRFSGSGSGTDFTLTISSLQPEDFATYYCQQVLHTITFGGGTKVEIK
notes: Fully human antibody
Consider B1, for which the EC50 – broadly, the concentration that produces a half-maximal response – in test [1] came to 0.07 nM; in test [3], 0.04 nM. Moreover, the IC50 (usually the concentration at which inhibition is half-maximal) in test [2] was determined as 0.38 nM.

B2: 42Y073-86F08-47 (antibody, V domains shown)
VH: QVQLVQSGAEVKKPGSSVKVSCKASGGTFSQYAIHWVRQAPGQGLEWMGVIIPIFGKANYAQKFQGRVTITADESTSTAYMELSSLRSEDTAVYYCARGAGYYGDKDPMDVWGQGTTVTVSS
VL: DIQLTQSPSSLSASVGDRVTITCRASQSISSYLNWYQQKPGKAPKLLIYAASSLQSGVPSRFSGSGSGTDFTLTISSLQPEDFATYYCQQVLHTITFGGGTKVEIK
notes: Fully human antibody
Consider B2, for which the concentration giving a half-maximal response (EC50) was found to be 0.06 nM in test [1] and 0.05 nM in test [3]. The molecule also had an IC50 in test [2] of 0.17 nM.

B3: 42Y073-86F08-8 (antibody, V domains shown)
VH: QVQLVQSGAEVKKPGSSVKVSCKASGGTFWLYAISWVRQAPGQGLEWMGGIIPQLGTANYAQKFQGRVTITADESTSTAYMELSSLRSEDTAVYYCARGAGYYGDKDPMDVWGQGTTVTVSS
VL: DIQLTQSPSSLSASVGDRVTITCRASQSISSYLNWYQQKPGKAPKLLIYAASSLQSGVPSRFSGSGSGTDFTLTISSLQPEDFATYYCQQVLHTITFGGGTKVEIK
notes: Fully human antibody; also called 42Y073-88F08-8
As to B3, the figures for the EC50 in test [1] and in test [3] were 0.03 nM and 0.17 nM, respectively. The same molecule registered a concentration for half-maximal inhibition (IC50) in test [2] of 0.93 nM.

B4: 42Y073-86F08-17 (antibody, V domains shown)
VH: QVQLVQSGAEVKKPGSSVKVSCKASGGTFREYAISWVRQAPGQGLEWMGGIIPVFGTANYAQKFQGRVTITADESTSTAYMELSSLRSEDTAVYYCARGAGYYGDKDPMDVWGQGTTVTVSS
VL: DIQLTQSPSSLSASVGDRVTITCRASQSISSYLNWYQQKPGKAPKLLIYAASSLQSGVPSRFSGSGSGTDFTLTISSLQPEDFATYYCQQVLHTITFGGGTKVEIK
notes: Fully human antibody; also called 42Y073-88F08-17
Take B4: the EC50 was determined as 0.03 nM in test [1] and 0.1 nM in test [3]. Moreover, the IC50 in test [2] amounted to 0.52 nM.

B5: 42Y073-86F08-22 (antibody, V domains shown)
VH: QVQLVQSGAEVKKPGASVKVSCKASGYTFDSYAMHWVRQAPGQGLEWMGGIIPIFGTAWYAQKFQGRVTITADESTSTAYMELSSLRSEDTAVYYCARGAGYYGDKDPMDVWGQGTTVTVSS
VL: DIQLTQSPSSLSASVGDRVTITCRASQSISSYLNWYQQKPGKAPKLLIYAASSLQSGVPSRFSGSGSGTDFTLTISSLQPEDFATYYCQQVLHTITFGGGTKVEIK
notes: Fully human antibody
For B5, the EC50 in test [1] stood at 0.09 nM; in test [3], 0.03 nM. This molecule registered an IC50 in test [2] of 0.41 nM.

B6: 42Y073-86F04-88 (antibody, V domains shown)
VH: QVQLVQSGAEVKKPGSSVKVSCKASGGTFSSSAISWVRQAPGQGLEWMGGIIPIFGRANYAQKFQGRVTITADESTSTAYMELSSLRSEDTAVYYCARLLGESGMDVWGQGTTVTVSS
VL: DIQMTQSPSSLSASVGDRVTITCRASQSISSYLNWYQQKPGKAPKLLIYAASSLQSGVPSRFSGSGSGTDFTLTISSLQPEDFATYYCQQPYFSPPTFGGGTKVEIK
notes: Fully human antibody
As for B6, the results for the EC50 in test [1] and in test [3] were 0.16 nM and 0.05 nM, respectively. The molecule also gave an IC50 in test [2] of 0.21 nM.

B7: 42Y073-2B04-46 (antibody, V domains shown)
VH: QVQLQQWGAGLLKPSETLSLTCAVYGGSFRRYYWSWIRQPPGKGLEWIGEIDGWGSTNYNPSLKSRVTISVDTSKNQFSLKLSSVTAADTAVYYCARGGSVDFWSGSDYYYYMDVWGKGATVTVSS
VL: EIVLTQSPATLSLSPGERATLSCRASQSVSSYLAWYQQKPGQAPRLLIYDASKRATGIPARFSGSGSGTDFTLTISSLEPEDFAVYYCQQLDNWPITFGGGTKVEIK
notes: Fully human antibody; also called 42Y073-2804-46
Take B7: the EC50 in test [1] amounted to 0.04 nM; in test [3] it was 1.06 nM. In test [2], this molecule displayed an IC50 of 0.4 nM.
